Patent publication US10174097B2, “Specific A-beta species-binding peptides for the therapy and/or diagnosis of Alzheimer's dementia” (Forschungszentrum Juelich GmbH, priority 2015, dated 2019)
[ ]: non-standard residue; d: D form. d(hArg) = N=C(N)NCCCC[C@@H](N)C(=O)O; dPhg = N[C@@H](C(=O)O)c1ccccc1

Legend:
[1] = target: T1, Abeta monomers (Homo sapiens, UniProt P05067); assay: Peptide microarray, binding of FITC Abeta monomers to immobilized peptides; settings: for Binding signal to Abeta monomers: peptide microarray, FITC Abeta, 1 hour at room temperature, control subtracted, averaged; for Binding specificity monomer to fibrils: quotient binding signal to monomers / binding signal to fibrils; for Binding specificity monomer to oligomer: quotient binding signal to monomers / binding signal to oligomers
T1 construct: incubate with FITC Abeta monomers, oligomers, fibrils and FITC for 1 hour at room temperature
Procedure: (§1) The procedure for identifying peptides that bind specifically to amyloid beta monomer or specifically to amyloid beta oligomers and for determining the binding specificity of peptides within the meaning of the present invention can thus be as follows. Peptide microarrays comprising various peptides immobilized on a surface, such as derivatives of D3, are each incubated with different species of Abeta (such as monomers, oligomers and fibrils) labeled with a fluorescent dye. A peptide microarray is incubated with only the fluorescent dye to serve as the control. So as to ensure the reproducibility of the results, the incubation of the peptide microarrays can be carried out at least three times for each species. The binding of the fluorescence-labeled Abeta to the immobilized peptides is detected by way of the fluorescent dye. The more Abeta binds to the peptide, the higher the fluorescence signal is. The measured fluorescence signals of the reproductions are standardized, and the […]. This avoids binding of the fluorescence-labeled Abeta via the dye. The binding signals of an Abeta species to a peptide are then averaged. So as to determine the binding specificity, the quotient of the species to which the peptide is to specifically bind and another species is found.
(§2) Pretreatment of the peptide microarray slides: • briefly dip 3× in ethanol (96%) and then wash with H2O (30 minutes) • briefly dry by way of centrifuging
(§3) Preparation of monomers and oligomers: • size exclusion chromatography according to Johansson et al. 2006 (Johansson, A.-S. et al. Physiochemical characterization of the Alzheimer's disease-related peptides Aβ1-42Arctic and Aβ1-42 wt. FEBS Journal 273, 2618-2630 (2006)). • oligomers were fractionated at 8-9 ml, monomers at 16-17 ml.
(§4) Carrying out the peptide microarray: • incubate with FITC Abeta monomers, oligomers, fibrils and FITC for 1 hour at room temperature • wash: TBS-T briefly 3× (only TBS-T buffer is replaced), 3×10 minutes in a flacon, 3×H2O, 3×10 minutes • dry by way of centrifugation • The binding of the fluorescence-labeled Abeta to the immobilized peptides is detected by way of the fluorescent dye using the microarray reader FLA800 from Fuji Film. The more Abeta binds to the peptide, the higher is the fluorescence signal. • carrier set mode: slides • resolution: 10 μm • scan mode: high sensitivity (slow): scan pixel at 200 mm/s • laser: 473 nm • filter: 530 DF 20 • photomultiplier tube (PMT) HV (%): 100 • images were stored as .tif files
(§5) The software, AIDA Metrix, from Raytest was used to evaluate the fluorescence signals:
(§6) To ensure the reproducibility of the results, the incubation of the peptide microarrays is carried out at least three times for each species.
(§7) The measured fluorescence signals of the reproductions are standardized using a median-based standardization, and the control was subtracted from the signal. This avoided the binding of the fluorescence-labeled Abeta via the dye.
(§8) The binding signals of an Abeta species to a peptide were averaged.
So as to determine the binding specificity, the quotient of the species to which the peptide is to specifically bind and another species is created.
Example: binding specificity of peptide X to Abeta monomers=binding signal of peptides X to monomers/binding signal of peptides X to oligomers.

[2] = target: T2, Abeta fibrils (Homo sapiens, UniProt P05067); assay: Peptide microarray, binding of FITC Abeta fibrils to immobilized peptides; settings: 1 hour at room temperature, control subtracted, averaged
T2 construct: Pre-incubated Abeta was co-incubated with the peptides
Procedure: as §1, §2
Preparation of fibrils: • incubate Abeta over 3 days, centrifuge, discard supernatant and resuspend in buffer (repeat 3 times)
as §4, §5, §6, §7, §8

[3] = target: T3, Abeta oligomers (Homo sapiens, UniProt P05067); assay: Peptide microarray, binding of FITC Abeta oligomers to immobilized peptides; settings: 1 hour at room temperature, control subtracted, averaged
Procedure: as §1, §2, §3, §4, §5, §6, §7, §8

[4] = target: T2, Abeta fibrils; assay: ThT assay, formation of ThT positive Abeta fibrils; assay type: biochemical; settings: 48 hours, co-incubation with Abeta, FIG. 3
[5] = target: T3, Abeta oligomers; assay: QIAD method, elimination of Abeta oligomers (density gradient centrifugation, RP-HPLC); assay type: biochemical; settings: ratio of Abeta to peptide of 8:1, fractions 4-6, FIG. 2
Procedure: Using the QIAD method for the quantitative characterization of amyloid peptides and/or proteins in a sample, it was possible to quantify the properties of the substances. Pre-incubated Abeta was co-incubated with the peptides. The different Abeta species were separated by way of density gradient centrifugation and quantified in the individual fractions by way of RP-HPLC Abeta. The elimination of the Abeta oligomers in fractions 4-6 was analyzed.

T2 sequence (P05067 672-713 limits assumed): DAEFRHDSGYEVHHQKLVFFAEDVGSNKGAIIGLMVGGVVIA
T1 sequence (P05067 672-713 limits assumed): as above
T3 sequence (P05067 672-713 limits assumed): as above

| Substance | Binding signal to Abeta monomers [1] [rfu] | Binding specificity monomer to fibrils [1] | Binding specificity monomer to oligomer [1] | Binding signal to Abeta fibrils [2] [rfu] | Binding signal to Abeta oligomers [3] [rfu] | ThT fluorescence during the entire measuring time period [4] | Elimination of Abeta oligomers [5] [%] |
| --- | --- | --- | --- | --- | --- | --- | --- |
| rkr07rlvtkrnr (H-[dR][dK][dR][d(hArg)][dR][dL][dV][dT][dK][dR][dN][dR]-NH2; SMILES CC(C)C[C@@H](NC(=O)[C@@H](CCCNC(=N)N)NC(=O)[C@@H](CCCCNC(=N)N)NC(=O)[C@@H](CCCNC(=N)N)NC(=O)[C@@H](CCCCN)NC(=O)[C@H](N)CCCNC(=N)N)C(=O)N[C@@H](C(=O)N[C@@H](C(=O)N[C@H](CCCCN)C(=O)N[C@H](CCCNC(=N)N)C(=O)N[C@H](CC(N)=O)C(=O)N[C@H](CCCNC(=N)N)C(N)=O)[C@H](C)O)C(C)C) [ANK16, D3 derivative; 07: D-Homoarginine] | 11.9 | 8.1 | 8.6 | 1.5 | 1.4 | – | – |
| rkrirl06yhinr (H-[dR][dK][dR][dI][dR][dL][dPhg][dY][dH][dI][dN][dR]-NH2; SMILES CC[C@@H](C)[C@@H](NC(=O)[C@@H](Cc1c[nH]cn1)NC(=O)[C@@H](Cc1ccc(O)cc1)NC(=O)[C@H](NC(=O)[C@@H](CC(C)C)NC(=O)[C@@H](CCCNC(=N)N)NC(=O)[C@H](NC(=O)[C@@H](CCCNC(=N)N)NC(=O)[C@@H](CCCCN)NC(=O)[C@H](N)CCCNC(=N)N)[C@H](C)CC)c1ccccc1)C(=O)N[C@H](CC(N)=O)C(=O)N[C@H](CCCNC(=N)N)C(N)=O) [ANK2, D3 derivative; 06: Phenylglycine (D)] | 5.6 | 7.1 | 3.4 | 0.8 | 1.6 | remains at the level of the first measured value | 54±7 |
| rkrirl06yhwnr (H-[dR][dK][dR][dI][dR][dL][dPhg][dY][dH][dW][dN][dR]-NH2; SMILES CC[C@@H](C)[C@@H](NC(=O)[C@@H](CCCNC(=N)N)NC(=O)[C@@H](CCCCN)NC(=O)[C@H](N)CCCNC(=N)N)C(=O)N[C@H](CCCNC(=N)N)C(=O)N[C@H](CC(C)C)C(=O)N[C@@H](C(=O)N[C@H](Cc1ccc(O)cc1)C(=O)N[C@H](Cc1c[nH]cn1)C(=O)N[C@H](Cc1c[nH]c2ccccc12)C(=O)N[C@H](CC(N)=O)C(=O)N[C@H](CCCNC(=N)N)C(N)=O)c1ccccc1) [ANK3, D3 derivative; 06: Phenylglycine (D)] | 3.6 | 21.9 | 6.5 | 0.2 | 0.6 | remains at the level of the first measured value | 62±10 |
| rkrirlvyhinr (H-[dR][dK][dR][dI][dR][dL][dV][dY][dH][dI][dN][dR]-NH2; SMILES CC[C@@H](C)[C@@H](NC(=O)[C@@H](Cc1c[nH]cn1)NC(=O)[C@@H](Cc1ccc(O)cc1)NC(=O)[C@H](NC(=O)[C@@H](CC(C)C)NC(=O)[C@@H](CCCNC(=N)N)NC(=O)[C@H](NC(=O)[C@@H](CCCNC(=N)N)NC(=O)[C@@H](CCCCN)NC(=O)[C@H](N)CCCNC(=N)N)[C@H](C)CC)C(C)C)C(=O)N[C@H](CC(N)=O)C(=O)N[C@H](CCCNC(=N)N)C(N)=O) [ANK1, D-enantiomeric 12-mer peptide derived from D3] | 6.6 | 5.1 | 3.5 | 1.3 | 1.9 | remains at the level of the first measured value | 51±6 |
| rprvrl06yhwnr (H-[dR][dP][dR][dV][dR][dL][dPhg][dY][dH][dW][dN][dR]-NH2; SMILES CC(C)C[C@@H](NC(=O)[C@@H](CCCNC(=N)N)NC(=O)[C@H](NC(=O)[C@@H](CCCNC(=N)N)NC(=O)[C@H]1CCCN1C(=O)[C@H](N)CCCNC(=N)N)C(C)C)C(=O)N[C@@H](C(=O)N[C@H](Cc1ccc(O)cc1)C(=O)N[C@H](Cc1c[nH]cn1)C(=O)N[C@H](Cc1c[nH]c2ccccc12)C(=O)N[C@H](CC(N)=O)C(=O)N[C@H](CCCNC(=N)N)C(N)=O)c1ccccc1) [ANK15, D3 derivative; 06: Phenylglycine (D)] | 1.3 | 12.2 | 2.2 | 0.1 | 0.6 | – | – |
| rpr07rlhtkkkr (H-[dR][dP][dR][d(hArg)][dR][dL][dH][dT][dK][dK][dK][dR]-NH2; SMILES CC(C)C[C@@H](NC(=O)[C@@H](CCCNC(=N)N)NC(=O)[C@@H](CCCCNC(=N)N)NC(=O)[C@@H](CCCNC(=N)N)NC(=O)[C@H]1CCCN1C(=O)[C@H](N)CCCNC(=N)N)C(=O)N[C@H](Cc1c[nH]cn1)C(=O)N[C@@H](C(=O)N[C@H](CCCCN)C(=O)N[C@H](CCCCN)C(=O)N[C@H](CCCCN)C(=O)N[C@H](CCCNC(=N)N)C(N)=O)[C@H](C)O) [ANK18, D3 derivative; 07: D-Homoarginine] | 1.2 | 9.4 | 7.0 | 0.1 | 0.2 | – | – |
| rkrirl06yhikr (H-[dR][dK][dR][dI][dR][dL][dPhg][dY][dH][dI][dK][dR]-NH2; SMILES CC[C@@H](C)[C@@H](NC(=O)[C@@H](Cc1c[nH]cn1)NC(=O)[C@@H](Cc1ccc(O)cc1)NC(=O)[C@H](NC(=O)[C@@H](CC(C)C)NC(=O)[C@@H](CCCNC(=N)N)NC(=O)[C@H](NC(=O)[C@@H](CCCNC(=N)N)NC(=O)[C@@H](CCCCN)NC(=O)[C@H](N)CCCNC(=N)N)[C@H](C)CC)c1ccccc1)C(=O)N[C@H](CCCCN)C(=O)N[C@H](CCCNC(=N)N)C(N)=O) [ANK17, D3 derivative; 06: Phenylglycine (D)] | 4.7 | 2.5 | 4.8 | 1.9 | 1.0 | – | – |
